Drawing on publication PMC10492700, this text covers pKa for one substance.

Targets include His119 (UniProt position 119, YAAELHLVHWN); His107 (UniProt position 107, GQGSEHTVDKK); His96 (UniProt position 96, IQFHFHWGSLD).
What all share (assay): NMR
Common to all, as to details: 308 K; not stated (50 mM buffer); 50 mM MES, MOPS, HEPES, TRIS/HCl or CAPS; zinc-loaded, inhibitor-free, folded

Consider “Carbonic anhydrase II (HCAII), wild type (Homo sapiens)”, for which the pKa is given as <5.1 (not titrating in the studied pH range, 5.1-9.9) in the data set with His119; <5.1 (not titrating in the studied pH range, 5.1-9.9) in the data set with His107; <5.1 (not titrating in the studied pH range, 5.1-9.9) with His96.
